From the Human Domainome abundance scans (Beltran et al. 2025)
± gives the uncertainty stated by the source.

B1: Ras GTPase-activating protein 1, residues 281 to 341; numbered along this chain, P20936 (parent)
chain: RRRVRAILPYTKVPDTDEISFLKGDMFIVHNELEDGWMWVTNLRTDEQGLIVEDLVEEVGR

Variants of: B1
Assay: abundance fitness (aPCA) (normalised: wild type 0, dead -1); higher = more abundant; growth selection in yeast, the domain comes from the species named
Settings: Homo sapiens

Abundance fitness: each site, then its substitutions
D17: M -0.059 ± 0.044; F -0.182 ± 0.028; L -0.065 ± 0.033; N -0.037 ± 0.032; W -0.136 ± 0.051; I -0.275 ± 0.033; C -0.105 ± 0.03; S -0.049 ± 0.024; R 0.005 ± 0.03; Y -0.084 ± 0.026; G -0.094 ± 0.026; P -0.088 ± 0.037; Q -0.011 ± 0.061; E -0.006 ± 0.053; H -0.061 ± 0.03
K23: E 0.006 ± 0.041; N -0.246 ± 0.023; H -0.313 ± 0.031; C -0.16 ± 0.023; R -0.094 ± 0.022; A -0.038 ± 0.031; L -0.232 ± 0.027; G -0.23 ± 0.025; M -0.149 ± 0.033; P -0.048 ± 0.034; Q -0.061 ± 0.043; I -0.148 ± 0.021
D15: L -0.246 ± 0.033; G -0.011 ± 0.025; F -0.241 ± 0.027; T -0.213 ± 0.048; I -0.518 ± 0.045; Y -0.168 ± 0.028; K -0.169 ± 0.079; C -0.126 ± 0.029; M -0.269 ± 0.077; R -0.172 ± 0.03; V -0.577 ± 0.03; N -0.022 ± 0.037; Q -0.207 ± 0.072; E 0.05 ± 0.05; H -0.04 ± 0.034; A -0.129 ± 0.029; P -0.819 ± 0.071; W -0.276 ± 0.059
S20: L -1.07 ± 0.095; P -0.639 ± 0.077; Q -0.828 ± 0.13; F -0.877 ± 0.067; E -0.641 ± 0.08; A -0.669 ± 0.053; I -0.844 ± 0.053; G -0.386 ± 0.028; V -0.972 ± 0.057; T -0.171 ± 0.035; N -0.14 ± 0.03; H -0.977 ± 0.08; C -0.318 ± 0.029; K -0.853 ± 0.12; W -0.511 ± 0.1; Y -0.881 ± 0.063; M -1.09 ± 0.2; D -0.111 ± 0.029
I19: L -0.004 ± 0.03; N -1.03 ± 0.069; Y -0.86 ± 0.043; E -0.881 ± 0.14; P -0.989 ± 0.11; W -1.04 ± 0.12; K -0.934 ± 0.13; Q -1.16 ± 0.23; D -0.941 ± 0.063; M -0.316 ± 0.048; F -0.943 ± 0.061; C -0.451 ± 0.028; S -0.878 ± 0.042; A -1.14 ± 0.12; R -0.833 ± 0.05
F21: Y -0.091 ± 0.021; N -0.83 ± 0.03; V -0.478 ± 0.021; H -0.84 ± 0.036; K -0.988 ± 0.081; S -0.908 ± 0.028; C -0.101 ± 0.021; M -0.538 ± 0.039; I -0.568 ± 0.024; T -0.907 ± 0.038; G -0.914 ± 0.029; Q -0.74 ± 0.068; P -0.939 ± 0.05; D -0.862 ± 0.03; R -0.855 ± 0.031; E -0.866 ± 0.063; W -0.92 ± 0.068
P14: F -0.348 ± 0.031; E -0.06 ± 0.066; S -0.085 ± 0.025; M -0.045 ± 0.063; G -0.089 ± 0.025; V -0.101 ± 0.027; Y -0.295 ± 0.033; R -0.132 ± 0.03; K -0.011 ± 0.061; N -0.075 ± 0.03; D -0.023 ± 0.028; C -0.142 ± 0.026; L -0.188 ± 0.032; A -0.027 ± 0.03; T -0.076 ± 0.034; I -0.124 ± 0.029; Q -0.055 ± 0.074; H -0.146 ± 0.032
V13: Y -0.137 ± 0.028; W -0.152 ± 0.058
T16: G -0.439 ± 0.027; L -0.973 ± 0.056; S -0.031 ± 0.024; A -0.746 ± 0.053; W -0.688 ± 0.061; P -0.911 ± 0.074; C -0.38 ± 0.027; V -0.894 ± 0.047; I -0.879 ± 0.059; H -0.784 ± 0.047; Q -1.03 ± 0.21; N -0.605 ± 0.037; F -0.752 ± 0.04; R -0.456 ± 0.029; M -0.87 ± 0.12; Y -0.942 ± 0.06; D -1.01 ± 0.068
E18: G -0.507 ± 0.031; Y -0.513 ± 0.037; C -0.341 ± 0.03; M -0.42 ± 0.082; H -0.452 ± 0.041; K -0.457 ± 0.11; T -0.222 ± 0.038; W -1.28 ± 0.29; V -0.369 ± 0.029; F -0.498 ± 0.036; I -0.35 ± 0.036; N -0.809 ± 0.051; Q 0.047 ± 0.089; R -0.353 ± 0.034; P -1.04 ± 0.12; L -0.35 ± 0.039
L22: G -0.229 ± 0.034; F -0.145 ± 0.029; D -0.045 ± 0.045; P -1.15 ± 0.19; W -0.102 ± 0.058; R -0.045 ± 0.032; I 0.001 ± 0.033; C -0.124 ± 0.031; Q 0.045 ± 0.13; E 0.006 ± 0.083; S -0.108 ± 0.029; T -0.153 ± 0.039; M -0.054 ± 0.062; V -0.038 ± 0.035; H -0.013 ± 0.041; N -0.013 ± 0.034; Y -0.102 ± 0.035; K -0.07 ± 0.073; A -0.095 ± 0.042
